For 1 substance, inhibition of VEGF stimulated endothelial cell migration (BRCEC microchemotaxis chamber), IC50 results are on record in patent US20080293626A1, “Pigment epithelium-derived factor as a therapeutic agent for vascular leakage” (The Johns Hopkins University, priority 2003, published 2008).

This assay has as its target PEDF receptor (unidentified cell surface receptor on bovine retinal capillary endothelial cells). In words: cell-based or functional assay.

With “Recombinant human pigment epithelium-derived factor (PEDF) (from UniProt P36955 20-418) (ligand)”, the inhibition of VEGF stimulated endothelial cell migration (BRCEC microchemotaxis chamber), IC50 was 0.5 nM.
